The record followed here is patent publication US7067486.

The series has as its target PKCβII of mouse brain (UniProt P68404).

Chain of PKCβII of mouse brain (P68404 other isoform, or with tags, fused parts or gaps): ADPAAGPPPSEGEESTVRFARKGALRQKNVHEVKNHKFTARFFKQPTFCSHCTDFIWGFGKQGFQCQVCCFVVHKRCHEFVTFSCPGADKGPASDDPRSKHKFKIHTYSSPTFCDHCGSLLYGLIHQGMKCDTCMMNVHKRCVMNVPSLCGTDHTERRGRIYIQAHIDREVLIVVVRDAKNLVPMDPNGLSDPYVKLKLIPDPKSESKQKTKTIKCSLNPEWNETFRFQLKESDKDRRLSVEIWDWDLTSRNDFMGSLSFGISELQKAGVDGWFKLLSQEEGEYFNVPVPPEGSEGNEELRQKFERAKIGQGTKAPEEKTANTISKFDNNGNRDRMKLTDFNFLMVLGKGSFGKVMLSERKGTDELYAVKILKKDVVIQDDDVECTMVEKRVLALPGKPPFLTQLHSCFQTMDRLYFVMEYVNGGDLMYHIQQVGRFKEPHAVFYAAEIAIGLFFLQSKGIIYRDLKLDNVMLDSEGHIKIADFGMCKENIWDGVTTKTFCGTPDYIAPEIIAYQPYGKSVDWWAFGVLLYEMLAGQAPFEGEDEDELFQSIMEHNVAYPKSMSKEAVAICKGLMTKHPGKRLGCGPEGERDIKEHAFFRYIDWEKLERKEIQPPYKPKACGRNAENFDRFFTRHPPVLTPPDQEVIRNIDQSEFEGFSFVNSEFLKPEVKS

For “human "readthrough" acetylcholinesterase variant AChE-R, recombinant full protein”, the “PKC activity in brain homogenates (PKC assay kit, Upstate Biotechnology)” value is recorded as “Note the elevation of PKC activity in the different brain regions in the AChE-R transgenics as compered to FVB/N controls”.
